In patent US20140087995A1 (published 2014):
Numbered stars: 1 amine (or outer) side, 2 acyl side, 3 side chain; on linkers, the order of the positions; unused ones are H or OH. Bridge positions count the residues as written; N and C are the ends. * marks the point of attachment. C20 diacid = O=C(O)CCCCCCCCCCCCCCCCCCC(=O)*; γGlu = O=C(O)[C@H](CCC(=O)[*:2])N[*:1]; AEEA = NCCOCCOCC(=O)O

Tests used:
[1] = target: T1, human calcitonin receptor (human, UniProt P30988 25-474); assay: cell-based or functional assay
T1 sequence (looked up): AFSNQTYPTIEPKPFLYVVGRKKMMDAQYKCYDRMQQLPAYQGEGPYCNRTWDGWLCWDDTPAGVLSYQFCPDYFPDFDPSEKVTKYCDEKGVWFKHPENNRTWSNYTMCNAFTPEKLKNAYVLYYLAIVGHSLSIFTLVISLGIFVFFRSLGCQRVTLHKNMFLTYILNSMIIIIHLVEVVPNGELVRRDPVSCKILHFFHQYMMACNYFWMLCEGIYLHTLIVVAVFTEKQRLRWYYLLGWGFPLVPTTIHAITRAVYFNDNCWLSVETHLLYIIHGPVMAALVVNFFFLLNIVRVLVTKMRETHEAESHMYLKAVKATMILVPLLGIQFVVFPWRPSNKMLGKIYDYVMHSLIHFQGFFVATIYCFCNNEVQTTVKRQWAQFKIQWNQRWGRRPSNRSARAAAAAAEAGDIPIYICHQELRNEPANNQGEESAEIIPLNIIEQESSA

[2] = target: T2, human amylin receptor (amylin 3(a) receptor: human calcitonin receptor with RAMP-3) (human, UniProt P30988 25-474; O60896 24-148, limits assumed); assay: SPA competition binding on membranes of BHK cells with human calcitonin receptor + RAMP-3; displacement of 125I-rat amylin (Assay V)
T2 construct: whole, on cells; Whole cells in the luciferase assay (Assay II a); also called hAmylin-R; hAmylinR
T2 sequence (looked up) 1: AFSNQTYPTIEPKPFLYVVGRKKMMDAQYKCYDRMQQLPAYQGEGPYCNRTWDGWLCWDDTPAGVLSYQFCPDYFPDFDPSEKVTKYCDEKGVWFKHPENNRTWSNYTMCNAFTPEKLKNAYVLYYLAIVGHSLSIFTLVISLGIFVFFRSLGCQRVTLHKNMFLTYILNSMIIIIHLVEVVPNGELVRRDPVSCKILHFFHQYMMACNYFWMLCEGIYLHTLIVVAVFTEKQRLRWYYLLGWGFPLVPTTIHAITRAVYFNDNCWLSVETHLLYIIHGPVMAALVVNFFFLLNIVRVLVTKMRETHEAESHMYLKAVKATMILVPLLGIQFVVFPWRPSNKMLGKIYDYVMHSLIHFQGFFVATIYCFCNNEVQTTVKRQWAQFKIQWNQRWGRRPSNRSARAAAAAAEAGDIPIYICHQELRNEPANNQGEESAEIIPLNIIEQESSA
T2 sequence (looked up) 2: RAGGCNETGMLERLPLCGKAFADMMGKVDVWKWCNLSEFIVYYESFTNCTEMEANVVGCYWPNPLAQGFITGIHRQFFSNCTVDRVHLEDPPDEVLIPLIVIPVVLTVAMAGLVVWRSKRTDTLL
Method: The binding assay was performed using scintillation proximity assay (SPA) beads (RPNQ0001) from PerkinElmer and cell membranes from the Amylin 3(a)/CRE-luc cells (as described in Assay (II)) were used. Membranes were prepared in the following way; the cells were rinsed with PBS and incubated with Versene for approximately 5 min before harvesting. The cells were flushed with PBS and the cell-suspension was centrifuged for 5 min at 1000 rpm. Cells were homogenized (ultrathurrax) in a buffer containing 20 mM Na-HEPES and 10 mM EDTA (pH 7.4) and centrifuged at 20.000 rpm for 15 min. The resulting pellet was resuspended, homogenized and centrifuged (20.000 rpm, 15 min) in a buffer containing 20 mM Na-HEPES and 0.1 mM EDTA (pH 7.4, buffer 2). The resulting pellet was resuspended in buffer 2 and protein concentration was measured (BCA protein Assay, Pierce). The homogenate was kept cold during the whole procedure. The membranes were kept at −80° C. until use. The assay was performed in a 384 well Optiplate (PerkinElmer) in a total volume of 40 ul. Membranes were mixed with SPA beads. Final concentration of membranes 35 ng/μL final and SPA beads was 0.05 mg/well. Test-compounds were dissolved in DMSO and further diluted in assay buffer (50 mM Hepes, pH 7.4, 1 mM CaCl2, 5 mM MgCl₂, 0.1% OA and 0.02% Tween20). […] The final mixture was incubated with shaking at 400 rpm for 120 min at 25° C. prior to centrifugation (1500 rpm, 10 min). Samples were analyzed on TopCounter™ (Packard). The IC₅₀ was calculated using (one site binding competition analysis) GraphPad Prism5 as a measure of receptor affinity.

human amylin receptor = target: T3, human amylin receptor (human, UniProt P30988 25-474; O60896 24-148, limits assumed); assay: SPA competition vs 125I-rat amylin, membranes of amylin 3(a) receptor BHK cells (Assay V)
T3 construct: whole, on cells; Used as cell membranes prepared from the Amylin 3(a)/CRE-luc BHK cells (Assay V); also called hAmylin-R; hAmylinR
T3 sequence (looked up) 1: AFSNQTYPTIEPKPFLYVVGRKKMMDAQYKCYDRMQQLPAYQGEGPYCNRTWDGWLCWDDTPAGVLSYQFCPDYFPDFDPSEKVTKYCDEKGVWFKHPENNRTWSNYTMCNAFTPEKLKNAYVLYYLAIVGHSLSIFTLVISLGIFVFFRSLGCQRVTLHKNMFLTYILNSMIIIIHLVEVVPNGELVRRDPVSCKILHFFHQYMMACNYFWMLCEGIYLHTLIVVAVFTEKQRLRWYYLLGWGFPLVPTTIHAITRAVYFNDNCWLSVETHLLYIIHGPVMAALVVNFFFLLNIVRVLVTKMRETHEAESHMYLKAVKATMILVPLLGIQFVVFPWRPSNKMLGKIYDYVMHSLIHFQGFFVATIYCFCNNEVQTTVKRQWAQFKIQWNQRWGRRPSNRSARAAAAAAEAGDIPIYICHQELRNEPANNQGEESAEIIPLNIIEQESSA
T3 sequence (looked up) 2: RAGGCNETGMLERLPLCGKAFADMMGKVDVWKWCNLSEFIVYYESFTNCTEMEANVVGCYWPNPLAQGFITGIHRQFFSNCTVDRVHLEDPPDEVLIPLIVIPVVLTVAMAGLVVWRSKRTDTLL
How it was run: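 SPA beads with BHK Amylin 3(a)/CRE-luc cell membranes (35 ng/μL final) in 50 mM Hepes pH 7.4, 1 mM CaCl2, 5 mM MgCl₂, 0.1% OA, 0.02% Tween20.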

B1: N^α1-[2-[2-[2-[[2-[2-[2-[[(4S)-4-carboxy-4-(19-carboxynonadecanoylamino)butanoyl]amino]ethoxy]ethoxy]acetyl]amino]ethoxy]ethoxy]acetyl]-[Glu14,Arg17,Pro21,Pro27 … (peptide)
peptide: {C20 diacid-γGlu-AEEA-AEEA}-KCNTATCATQRLAEFLRHSSPNFGAIPSSTNVGSNTP-NH2
modifications: disulfide 2-7
SMILES: CC[C@H](C)[C@H](NC(=O)[C@H](C)NC(=O)CNC(=O)[C@H](Cc1ccccc1)NC(=O)[C@H](CC(N)=O)NC(=O)[C@@H]1CCCN1C(=O)[C@H](CO)NC(=O)[C@H](CO)NC(=O)[C@H](Cc1c[nH]cn1)NC(=O)[C@H](CCCNC(=N)N)NC(=O)[C@H](CC(C)C)NC(=O)[C@H](Cc1ccccc1)NC(=O)[C@H](CCC(=O)O)NC(=O)[C@H](C)NC(=O)[C@H](CC(C)C)NC(=O)[C@H](CCCNC(=N)N)NC(=O)[C@H](CCC(N)=O)NC(=O)[C@@H](NC(=O)[C@H](C)NC(=O)[C@@H]1CSSC[C@H](NC(=O)[C@H](CCCCN)NC(=O)COCCOCCNC(=O)COCCOCCNC(=O)CC[C@H](NC(=O)CCCCCCCCCCCCCCCCCCC(=O)O)C(=O)O)C(=O)N[C@@H](CC(N)=O)C(=O)N[C@@H]([C@@H](C)O)C(=O)N[C@@H](C)C(=O)N[C@@H]([C@@H](C)O)C(=O)N1)[C@@H](C)O)C(=O)N1CCC[C@H]1C(=O)N[C@@H](CO)C(=O)N[C@@H](CO)C(=O)N[C@H](C(=O)N[C@@H](CC(N)=O)C(=O)N[C@H](C(=O)NCC(=O)N[C@@H](CO)C(=O)N[C@@H](CC(N)=O)C(=O)N[C@H](C(=O)N1CCC[C@H]1C(N)=O)[C@@H](C)O)C(C)C)[C@@H](C)O
notes: also called compound 20
Ratio hCT/hAmylin funct. [1]: 3.6 ratio
IC50 [2]: 0.217 nM

B2: N^-1-[(4S)-4-carboxy-4-(19-carboxynonadecanoylamino)butanoyl]-Gly[Arg1,Ala14,Arg17,Pro21,Pro27,His34]-h-amylin (peptide)
peptide: {C20 diacid-γGlu}-GRCNTATCATQRLAAFLRHSSPNFGAIPSSTNVGHNTY-NH2
modifications: disulfide 3-8
SMILES: CC[C@H](C)[C@H](NC(=O)[C@H](C)NC(=O)CNC(=O)[C@H](Cc1ccccc1)NC(=O)[C@H](CC(N)=O)NC(=O)[C@@H]1CCCN1C(=O)[C@H](CO)NC(=O)[C@H](CO)NC(=O)[C@H](Cc1c[nH]cn1)NC(=O)[C@H](CCCNC(=N)N)NC(=O)[C@H](CC(C)C)NC(=O)[C@H](Cc1ccccc1)NC(=O)[C@H](C)NC(=O)[C@H](C)NC(=O)[C@H](CC(C)C)NC(=O)[C@H](CCCNC(=N)N)NC(=O)[C@H](CCC(N)=O)NC(=O)[C@@H](NC(=O)[C@H](C)NC(=O)[C@@H]1CSSC[C@H](NC(=O)[C@H](CCCNC(=N)N)NC(=O)CNC(=O)CC[C@H](NC(=O)CCCCCCCCCCCCCCCCCCC(=O)O)C(=O)O)C(=O)N[C@@H](CC(N)=O)C(=O)N[C@@H]([C@@H](C)O)C(=O)N[C@@H](C)C(=O)N[C@@H]([C@@H](C)O)C(=O)N1)[C@@H](C)O)C(=O)N1CCC[C@H]1C(=O)N[C@@H](CO)C(=O)N[C@@H](CO)C(=O)N[C@H](C(=O)N[C@@H](CC(N)=O)C(=O)N[C@H](C(=O)NCC(=O)N[C@@H](Cc1c[nH]cn1)C(=O)N[C@@H](CC(N)=O)C(=O)N[C@H](C(=O)N[C@@H](Cc1ccc(O)cc1)C(N)=O)[C@@H](C)O)C(C)C)[C@@H](C)O
IC50 (human amylin receptor): 0.426 nM

{C20 diacid-γGlu}-GRCNTATCATQRLAAFLRHSSPNFGAIPSSTNVGPNTY-NH2 (disulfide 3-8)
IC50 (human amylin receptor): 0.114 nM
